In patent US20200256877A1, “Microbiota Sequence Variants Of Tumor-Related Antigenic Epitopes” (ENTEROME S.A., priority 2017, published 2020):

What was measured:
HLA-A*0201 = biological target: T1, HLA-A*0201 (Homo sapiens, UniProt P04439, D140Y/D185E/D98H/E176V/E277Q/G131W/G231S/I119V/I121R/I166T/I218V/L300P/L318F/N151K/N90K/P208A/P217A/Q86G/Q94H/R138H/R169H/T345S); test: In vitro affinity of peptides to HLA-A*0201 on T2 cell line (FACS, anti-HLA-A2 labeling); format: cell-based; conditions: T2 cells; for Binding to HLA-A*0201 (in words): in vitro; for Mean fluorescence intensity: 16 hours
T1 construct: human tumoral cell T2 which expresses the HLA-A*0201 molecule; endogenous in cells; host or cells: T2 cells (human, TAP1/2 negative)
Description: A method for in vitro testing is well-known to the skilled person. For example, the skilled person may use the experimental protocol as validated for peptides presented by HLA-A*0201 in Tourdot et al., A general strategy to enhance immunogenicity of low-affinity HLA-A2.1-associated peptides: implication in the identification of cryptic tumor epitopes. Eur J Immunol. 2000 December; 30(12):3411-21. In this context, a reference peptide, such as HIV pol 589-597, may be additionally used in the test. This enables calculation of the in vitro affinity relative to the binding observed with the reference peptide, e.g. by the following equation:
Relative affinity=concentration of each peptide inducing 20% of expression of HLA-A*0201/concentration of the reference peptide inducing 20% of expression of HLA-A*0201
(where 100% is the level of HLA-A*0201 expression detected with the reference peptide, e.g. HIV pol 589-597, for example used at a 100 μM concentration).
The experimental protocol is similar to the one that was validated for peptides presented by the HLA-A*0201 (Tourdot et al., A general strategy to enhance immunogenicity of low-affinity HLA-A2.1-associated peptides: implication in the identification of cryptic tumor epitopes. Eur J Immunol. 2000 December; 30(12):3411-21). Affinity measurement of the peptides is achieved with the human tumoral cell T2 which expresses the HLA-A*0201 molecule, but which is TAP1/2 negative and incapable of presenting endogenous peptides.
(§1) T2 cells (2.10^5 cells per well) were incubated with decreasing concentrations of peptides from 100 μM to 0.1 μM in a AIMV medium supplemented with 100 ng/μl of human β2m at 37° C. for 16 hours. Cells were then washed two times and marked with the anti-HLA-A2 antibody coupled to PE (clone BB7.2, BD Pharmagen).
The analysis was performed by FACS (Guava Easy Cyte). For each peptide concentration, the geometric mean of the labeling associated with the peptide of interest was subtracted from background noise and reported as a percentage of the geometric mean of the […] labeling obtained for the reference peptide HIV pol 589-597 at a concentration of 100 μM. The relative affinity is then determined as follows:
relative affinity=concentration of each peptide inducing 20% of expression of HLA-A*0201/concentration of the reference peptide inducing 20% of expression of HLA-A*0201.
The experimental protocol, materials and methods correspond to those outlined in Example 4, with the only difference that the above mentioned antigenic peptides were used.
as §1, with “β2 m” for “β2m”

[1] = system: splenocytes (IFNγ secretion); test: ELISPOT-IFNγ on splenocytes of HHD DR3 and HHD DR1 mice vaccinated with IL13RA2-BL (Example 15); format: in vivo, mouse
Procedure: Mice were immunized with a specific vaccination peptide (vacc-pAg) combined to a common helper peptide (h-pAg).
The peptides were provided as follows: • vacc-pAg: IL13RA2-BL; all produced and provided at a 4 mg/ml (4 mM) concentration; • h-pAg: HHD-DR3 peptide (SEQ ID NO: 32); for immunization of β/A2/DR3 HHDDR3 mice provided at a 4 mg/ml (4 mM) concentration • h-pAg: UCP2 peptide (SEQ ID NO: 159); for immunization of β/A2/DR1 HHDDR1 mice provided at a 4 mg/ml (4 mM) concentration
The animals were immunized on day 0 (d0) with a prime injection, and on d14 with a boost injection. Each mouse was injected s.c. at tail base with 100 μL of an oil-based emulsion that contained: • 100 μg of vacc-pAg (25 μL of 4 mg/mL stock per mouse); • 150 μg of h-pAg (15 μL of 10 mg/mL stock per mouse); • 10 μL of PBS to reach a total volume of 50 μL (per mouse); • Incomplete Freund's Adjuvant (IFA) added at 1:1 (v:v) ratio (50 μL per mouse).
Seven days after the boost injection (i.e. on d21), the animals were euthanized and the spleen was harvested. Splenocytes were prepared by mechanical disruption of the organ followed by 70 μm-filtering and Ficoll density gradient purification.
The splenocytes were immediately used in an ELISPOT-IFNγ assay (Table 21). […]
(§2) Spots were counted on a Grand ImmunoSpot® S6 Ultimate UV Image Analyzer interfaced to the ImmunoSpot 5.4 software (CTL-Europe). […]

[2] = system: splenocytes (IFNγ secretion); test: ELISPOT-IFNγ on splenocytes of β/A2/DR3 mice vaccinated with FOXM1-B2 (Example 12); format: in vivo, mouse
Procedure: Briefly, 15 β/A2/DR3 mice were immunized with a specific vaccination peptide (vacc-pAg) combined to a common helper peptide (h-pAg) (as outlined in Table 14 below). The vacc-pAg were compared in couples (group 1 vs. group 2). Thereby, both native and optimized versions of a single peptide were compared in each wave.
The animals were immunized on day 0 (d0) with a prime injection, and on d14 with a boost injection. Each mouse was injected s.c. at tail base with 100 μL of an oil-based emulsion that contained:
100 μg of vacc-pAg (25 μL of 4 mg/mL stock per mouse);
150 μg of h-pAg (15 μL of 10 mg/mL stock per mouse);
10 μL of PBS to reach a total volume of 50 μL (per mouse);
Incomplete Freund's Adjuvant (IFA) added at 1:1 (v:v) ratio (50 μL per mouse).
Seven days after the boost injection (i.e., on d21), the animals were euthanized and the spleen was harvested. Splenocytes were prepared by mechanical disruption of the organ followed by 70 μm-filtering and Ficoll density gradient purification.
The splenocytes were immediately used in an ELISPOT-IFNγ assay (Table 15). […]
as §2

Concentration inducing 20% of expression of the HLA-A*0201 (HLA-A*0201) [µM]	Mean fluorescence intensity (HLA-A*0201; peptide at 3 μM)	Mean fluorescence intensity (HLA-A*0201; peptide at 25 μM)	Mean fluorescence intensity (HLA-A*0201; peptide at 100 μM)	Sequence	Binding to HLA-A*0201 (in words) (HLA-A*0201)	% of maximum HIV pol 589-597 binding activity (HLA-A*0201; peptide at 6.25 μM) [%]	% of maximum HIV pol 589-597 binding activity (HLA-A*0201; peptide at 25 μM) [%]	% of maximum HIV pol 589-597 binding activity (HLA-A*0201; peptide at 100 μM) [%]	Response of splenocytes, ELISPOT-IFNγ (in words) ([1]; HHD DR3 and HHD DR1 mice immunized with IL13RA2-BL + helper + IFA, stimulation with IL13RA2-BL)	Immune response against human peptide IL13RA2-HL (in words) ([1]; mice immunized with IL13RA2-BL, stimulation with human peptide)	T cell responses in the ELISPOT-IFNγ assay (in words) ([2]; β/A2/DR3 mice vaccinated with FOXM1-B2 (100 μg) + HHD-DR3 + IFA, d0 and d14)	Activation of T cells after ex vivo re-stimulation with human FOXM1-H2 (in words) ([2]; β/A2/DR3 mice vaccinated with FOXM1-B2, re-stimulation FOXM1-H2 10 μM)
				FLPFGFILPV (Sequence variant) [SEQ ID NO: 139]	strong binding affinity	43	96	69	strong response of splenocytes	effective immune response		
6.7	12.7	98.2	105	LMDLSTTEV (Sequence variant) [SEQ ID NO: 75]	bind						induced strong T cell responses	efficient activation of T cells could be observed
